{"source": "patent US20070060522A1", "assay_in_all_cases": "cell-based or functional assay", "key": {"[1]": {"target": "αMβ2 (Mac-1; CD11b/CD18) on human peripheral blood monocytes (human) (UniProt P11215)"}, "[2]": {"target": "CD54 (ICAM-1) on A375 human melanoma cells (human) (UniProt P05362)", "sequence (P05362 28-532)": "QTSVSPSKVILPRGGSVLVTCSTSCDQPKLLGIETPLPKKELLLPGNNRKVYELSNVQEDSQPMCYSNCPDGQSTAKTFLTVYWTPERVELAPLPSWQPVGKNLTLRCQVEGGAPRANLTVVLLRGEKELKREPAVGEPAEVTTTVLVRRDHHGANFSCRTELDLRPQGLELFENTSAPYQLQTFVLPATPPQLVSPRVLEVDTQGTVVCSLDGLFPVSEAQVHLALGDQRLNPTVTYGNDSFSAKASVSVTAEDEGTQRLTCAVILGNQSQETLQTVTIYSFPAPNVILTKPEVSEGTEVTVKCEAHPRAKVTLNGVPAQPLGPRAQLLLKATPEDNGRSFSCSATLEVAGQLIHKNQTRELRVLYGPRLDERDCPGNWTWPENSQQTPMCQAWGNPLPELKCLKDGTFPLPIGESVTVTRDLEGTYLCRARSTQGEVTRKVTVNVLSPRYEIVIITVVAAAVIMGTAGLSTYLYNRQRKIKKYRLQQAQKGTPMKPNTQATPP"}, "[3]": {"target": "αLβ2 (LFA-1; CD11a/CD18) on human peripheral blood leukocytes (human) (UniProt P20701)"}}}
{"substance": "blocking monoclonal anti-αMβ2 antibody (clone ICRF44)", "values": [{"measurement": "inhibition of monocyte adherence to sFn pretreated tumor cells", "setting": "[1]", "result": 80, "unit": "%"}, {"measurement": "inhibition of monocyte adherence to untreated A375 cells", "setting": "[1]", "result": 22.5, "unit": "%"}]}
{"substance": "murine anti-human monoclonal blocking antibody against CD54 (clone 84H10)", "values": [{"measurement": "inhibition of adherence of sFn pretreated monocytes to A375 cells", "setting": "[2]", "result": 86, "unit": "%"}, {"measurement": "inhibition of adherence of untreated monocytes to A375 cells", "setting": "[2]", "result": 53, "unit": "%"}]}
{"substance": "murine anti-human monoclonal blocking antibody against αLβ2 (clone 25.3)", "values": [{"measurement": "inhibition of monocyte adherence to sFn pre-treated A375 cells", "setting": "[3]", "result": 23, "unit": "%"}, {"measurement": "inhibition of monocyte adherence to untreated A375 cells", "setting": "[3]", "result": 80, "unit": "%"}]}
{"substance": "soluble fibrin (sFn) (from UniProt P02671 36-629; P02675 45-491; P02679 27-453) (ligand)", "values": [{"measurement": "monocyte adherence when monocytes and A375 cells were both pre-treated with sFn, static microplate assay (untreated control 32.9+1.3%)", "setting": "[2]", "result": 15.9, "unit": "%"}, {"measurement": "adherence of sFn treated monocytes to untreated A375 cells, static microplate assay (untreated control 32.9+1.3%)", "setting": "[1]", "result": 38.8, "unit": "%"}, {"measurement": "monocyte adherence to sFn pre-treated A375 cells, static microplate assay (untreated control 32.9+1.3%)", "setting": "[1]", "result": 68.5, "unit": "%"}]}
